Laboratory results as given in patent US9073989B2, “Antibiotic comprising an antibody mimetic, its preparation methods and uses thereof” (PROTEIN DESIGN LAB, LTD, priority 2011, dated 2015).
“Also recorded” adds a separate entry of the source.

B1: Colicin Ia (protein, UniProt P06716 1-626, looked up)
Colicin-Ia: MSDPVRITNPGAESLGYDSDGHEIMAVDIYVNPPRVDVFHGTPPAWSSFGNKTIWGGNEWVDDSPTRSDIEKRDKEITAYKNTLSAQQKENENKRTEAGKRLSAAIAAREKDENTLKTLRAGNADAADITRQEFRLLQAELREYGFRTEIAGYDALRLHTESRMLFADADSLRISPREARSLIEQAEKRQKDAQNADKKAADMLAEYERRKGILDTRLSELEKNGGAALAVLDAQQARLLGQQTRNDRAISEARNKLSSVTESLNTARNALTRAEQQLTQQKNTPDGKTIVSPEKFPGRSSTNHSIVVSGDPRFAGTIKITTSAVIDNRANLNYLLSHSGLDYKRNILNDRNPVVTEDVEGDKKIYNAEVAEWDKLRQRLLDARNKITSAESAVNSARNNLSARTNEQKHANDALNALLKEKENIRNQLSGINQKIAEEKRKQDELKATKDAINFTTEFLKSVSEKYGAKAEQLAREMAGQAKGKKIRNVEEALKTYEKYRADINKKINAKDRAAIAAALESVKLSDISSNLNRFSRGLGYAGKFTSLADWITEFGKAVRTENWRPLFVKTETIIAGNAATALVALVFSILTGSALGIIGYGLLMAVTGALIDESLVEKANKFWGI
notes: Wild-type bacterial toxin secreted by E. coli forming ion channels
B2: PMC-AM1: Fusion of antibody mimetic AM1 (VHCDR1-VHFR2-VLCDR3, Seq ID No.2) to C-terminus of Colicin Ia; Seq ID No.6 (protein)
chain: SDPVRITNPGAESLGYDSDGHEIMAVDIYVNPPRVDVFHGTPPAWSSFGNKTIWGGNEWVDDSPTRSDIEKRDKEITAYKNTLSAQQKENENKRTEAGKRLSAAIAAREKDENTLKTLRAGNADAADITRQEFRLLQAELREYGFRTEIAGYDALRLHTESRMLFADADSLRISPREARSLIEQAEKRQKDAQNADKKAADMLAEYERRKGILDTRLSELEKNGGAALAVLDAQQARLLGQQTRNDRAISEARNKLSSVTESLNTARNALTRAEQQLTQQKNTPDGKTIVSPEKFPGRSSTNHSIVVSGDPRFAGTIKITTSAVIDNRANLNYLLSHSGLDYKRNILNDRNPVVTEDVEGDKKIYNAEVAEWDKLRQRLLDARNKITSAESAVNSARNNLSARTNEQKHANDALNALLKEKENIRNQLSGINQKIAEEKRKQDELKATKDAINFTTEFLKSVSEKYGAKAEQLAREMAGQAKGKKIRNVEEALKTYEKYRADINKKINAKDRAAIAAALESVKLSDISSNLNRFSRGLGYAGKFTSLADWITEFGKAVRTENWRPLFVKTETIIAGNAATALVALVFSILTGSALGIIGYGLLMAVTGALIDESLVEKANKFWGISYWLHWIKQRPGQGLWIGSQSTHVPRT
modifications: The amino acid sequence of antibiotic PMC-AM1

Test system: Mycobacterium tuberculosis (H37Rv, clinical drug-resistant strain94120)
Format: cell-based

Row | Molecule | growth of bacteria lawn, strain H37Rv, re-culture test | bacteriostatic or bactericidal role | growth of bacteria lawn, strain94120
1 | B1 | quantity of cells growth; also recorded: a mass of bacteria lawn growing |  | 
2 | B2 | still no cell growth; also recorded: always no growth of bacteria lawn | bactericidal effect rather than simply antibacterial effect | no cell growth; also recorded: no growth of bacteria lawn
